Source: paper PMC12312033

Assays:
Test in all cases: NMR
Details in all cases: 286 K (pH measured at 21 °C), none, MilliQ water with 3.2 mM DSS-d6 and 0.13 mM EDTA, pH adjusted with NaOH/HCl, random coil
[1] = target: Glu24 (UniProt position 75, …)
[2] = target: Glu21 (UniProt position 72, …)
[3] = target: Glu17 (UniProt position 68, …)
[4] = target: Glu3 (position 3, ---GGEGG---)
[5] = 50 mM CaCl2, total ionic strength not stated, 50 mM CaCl2 (5-fold excess over 10 mM peptide)
[6] = not stated (no added salt; varies with NaOH/HCl additions), no Ca2+, 10 mM peptide

| Protein | pKa [1, 5] | pKa [1, 6] | pKa [2, 5] | pKa [2, 6] | pKa [3, 5] | pKa [3, 6] | pKa [4, 5] | pKa [4, 6] |
| --- | --- | --- | --- | --- | --- | --- | --- | --- |
| PLEPRREVSELN [Osteocalcin P15-N26 peptide, uncarboxylated (Glu) form (peptide 5) (Homo sapiens; C23S)] | 4.20 | 4.19 | 4.28 | 4.33 | 4.25 | 4.26 | – | – |
| GGEGG [Model peptide 1, Ac-GGEGG-NH2 (synthetic)] | – | – | – | – | – | – | 4.30 | 4.34 |
